Data taken from publication doi:10.1101/2025.05.21.655409.

Columns and labels:
[1] = target: Xenopus laevis histone H3 labelled with Oregon Green 488 at C110 (Xenopus laevis) (UniProt P84233); assay: fluorescence polarisation; fluorescence anisotropy; 5 nM OG488-labeled histone, ligase complex titrated; 20 mM Tris-HCl, 10 mM NaCl, 5% glycerol, 1 mM DTT; BSA-coated 96-well plates, 25 °C, 1.5-2.5 h
[2] = target: Xenopus laevis histone H4 V22C labelled with Oregon Green 488 (Xenopus laevis) (UniProt P62799); assay: as above

Kd [1] [nM] | Kd [2] [nM] | fold lower affinity than ASB9-CRL [1] [fold] | fold lower affinity than NEDD8-ASB9-CRL [1] [fold] | fold lower affinity than ASB9-CRL [2] [fold] | fold lower affinity than NEDD8-ASB9-CRL [2] [fold] | Substance
78.2 | 48.4 | – | – | – | – | NEDD8-ASB9-ELOB/C-CUL5-RBX2 (NEDD8-ASB9-CRL) (from UniProt Q96DX5 1-294; Q15370 1-118; Q15369 1-112; Q93034 1-780; Q9UBF6 1-113; Q15843 1-76) (complex)
187 | 79.7 | – | – | – | – | ASB9-ELOB/C-CUL5-RBX2 (ASB9-CRL), not neddylated (from UniProt Q96DX5 1-294; Q15370 1-118; Q15369 1-112; Q93034 1-780; Q9UBF6 1-113) (complex)
– | – | 2 | 4 | 2 | 4 | CUL5-RBX2 (from UniProt Q93034 1-780; Q9UBF6 1-113) (complex)
